Results reported in patent US20140072613A1, “Compositions and Methods for Treating Cutaneous Scarring” (priority 2012, published 2014).

Tests used:
Experiment in all cases: cell-based or functional assay
JAK3(h) (human) = JAK3(h) (human) (UniProt P52333)
ACK1(h) (human) = ACK1(h) (human) (UniProt Q07912)
HIPK2(h) (human) = HIPK2(h) (human) (UniProt Q9H2X6)
PDGFRα(V561D)(h) (human) = PDGFRα(V561D)(h) (human) (UniProt P16234)
Fes(h) (human) = Fes(h) (human) (UniProt P07332)
MLCK(h) (human) = target: MLCK(h) (human)
EphA8(h) (human) = target: T1, EphA8(h) (human) (UniProt P29322)
T1 sequence (looked up): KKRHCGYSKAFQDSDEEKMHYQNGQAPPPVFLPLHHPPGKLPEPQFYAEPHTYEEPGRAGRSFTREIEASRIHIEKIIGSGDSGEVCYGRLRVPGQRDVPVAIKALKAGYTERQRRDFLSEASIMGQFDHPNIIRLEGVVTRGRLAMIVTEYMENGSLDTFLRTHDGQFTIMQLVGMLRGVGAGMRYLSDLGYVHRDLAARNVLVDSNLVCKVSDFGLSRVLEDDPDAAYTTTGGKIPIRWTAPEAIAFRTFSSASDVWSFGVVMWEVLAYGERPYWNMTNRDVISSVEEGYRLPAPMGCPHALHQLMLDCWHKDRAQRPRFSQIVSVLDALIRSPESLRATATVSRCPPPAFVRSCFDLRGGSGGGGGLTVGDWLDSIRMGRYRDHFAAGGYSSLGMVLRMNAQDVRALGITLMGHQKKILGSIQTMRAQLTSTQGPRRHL

PKG1α(h) (human) = PKG1α(h) (human) (UniProt Q13976)
Sequence of PKG1α(h) (human) (Q13976 whole entry): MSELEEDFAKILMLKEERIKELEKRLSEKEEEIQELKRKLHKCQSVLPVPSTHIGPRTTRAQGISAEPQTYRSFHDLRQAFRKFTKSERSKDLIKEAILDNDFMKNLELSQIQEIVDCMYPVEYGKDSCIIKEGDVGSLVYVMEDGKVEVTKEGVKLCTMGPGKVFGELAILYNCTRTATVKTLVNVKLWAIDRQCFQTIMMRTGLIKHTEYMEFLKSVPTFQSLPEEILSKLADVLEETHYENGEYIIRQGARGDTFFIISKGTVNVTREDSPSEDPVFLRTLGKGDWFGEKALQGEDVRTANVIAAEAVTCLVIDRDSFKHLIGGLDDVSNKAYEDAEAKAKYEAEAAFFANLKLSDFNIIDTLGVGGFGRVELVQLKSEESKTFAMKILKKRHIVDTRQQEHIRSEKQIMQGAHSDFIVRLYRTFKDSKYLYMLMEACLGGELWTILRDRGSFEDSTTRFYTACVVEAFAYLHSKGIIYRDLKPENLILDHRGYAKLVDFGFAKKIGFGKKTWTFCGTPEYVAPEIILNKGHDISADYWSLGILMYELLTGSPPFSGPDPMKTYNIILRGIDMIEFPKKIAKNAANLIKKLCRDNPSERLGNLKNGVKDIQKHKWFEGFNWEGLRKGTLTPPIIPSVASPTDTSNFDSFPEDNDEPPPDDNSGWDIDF

EphB3(h) (human) = EphB3(h) (human) (UniProt P54753)
Sequence of EphB3(h) (human) (P54753 581-998 limits assumed): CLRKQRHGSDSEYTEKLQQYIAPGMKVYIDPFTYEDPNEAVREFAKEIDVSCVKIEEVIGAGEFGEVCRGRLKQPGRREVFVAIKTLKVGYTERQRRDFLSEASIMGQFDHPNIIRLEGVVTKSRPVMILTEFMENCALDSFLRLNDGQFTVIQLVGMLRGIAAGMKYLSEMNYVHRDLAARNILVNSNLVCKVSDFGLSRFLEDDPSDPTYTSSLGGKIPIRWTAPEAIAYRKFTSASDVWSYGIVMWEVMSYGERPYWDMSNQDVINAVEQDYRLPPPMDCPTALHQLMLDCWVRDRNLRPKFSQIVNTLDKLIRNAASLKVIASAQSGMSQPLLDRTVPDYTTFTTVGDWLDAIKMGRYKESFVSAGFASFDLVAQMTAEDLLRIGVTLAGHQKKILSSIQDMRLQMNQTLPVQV

PTK5(h) (human) = PTK5(h) (human) (UniProt P42685)
Sequence of PTK5(h) (human) (P42685 whole entry): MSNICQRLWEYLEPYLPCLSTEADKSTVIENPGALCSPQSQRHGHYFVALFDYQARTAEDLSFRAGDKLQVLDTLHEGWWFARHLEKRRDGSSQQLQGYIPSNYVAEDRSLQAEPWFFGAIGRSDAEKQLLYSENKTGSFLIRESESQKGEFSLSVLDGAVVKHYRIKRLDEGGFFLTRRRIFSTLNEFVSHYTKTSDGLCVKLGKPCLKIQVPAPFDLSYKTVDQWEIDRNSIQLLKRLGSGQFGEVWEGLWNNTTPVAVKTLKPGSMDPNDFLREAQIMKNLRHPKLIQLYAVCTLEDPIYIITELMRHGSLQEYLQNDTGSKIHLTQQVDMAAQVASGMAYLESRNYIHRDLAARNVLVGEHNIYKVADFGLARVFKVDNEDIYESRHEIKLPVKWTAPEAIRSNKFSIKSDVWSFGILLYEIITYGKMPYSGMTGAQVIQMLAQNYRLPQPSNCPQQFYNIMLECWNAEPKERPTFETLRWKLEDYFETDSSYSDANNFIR

eEF-2K(h) (human) = target: T2, eEF-2K(h) (human) (UniProt O00418)
T2 sequence (looked up): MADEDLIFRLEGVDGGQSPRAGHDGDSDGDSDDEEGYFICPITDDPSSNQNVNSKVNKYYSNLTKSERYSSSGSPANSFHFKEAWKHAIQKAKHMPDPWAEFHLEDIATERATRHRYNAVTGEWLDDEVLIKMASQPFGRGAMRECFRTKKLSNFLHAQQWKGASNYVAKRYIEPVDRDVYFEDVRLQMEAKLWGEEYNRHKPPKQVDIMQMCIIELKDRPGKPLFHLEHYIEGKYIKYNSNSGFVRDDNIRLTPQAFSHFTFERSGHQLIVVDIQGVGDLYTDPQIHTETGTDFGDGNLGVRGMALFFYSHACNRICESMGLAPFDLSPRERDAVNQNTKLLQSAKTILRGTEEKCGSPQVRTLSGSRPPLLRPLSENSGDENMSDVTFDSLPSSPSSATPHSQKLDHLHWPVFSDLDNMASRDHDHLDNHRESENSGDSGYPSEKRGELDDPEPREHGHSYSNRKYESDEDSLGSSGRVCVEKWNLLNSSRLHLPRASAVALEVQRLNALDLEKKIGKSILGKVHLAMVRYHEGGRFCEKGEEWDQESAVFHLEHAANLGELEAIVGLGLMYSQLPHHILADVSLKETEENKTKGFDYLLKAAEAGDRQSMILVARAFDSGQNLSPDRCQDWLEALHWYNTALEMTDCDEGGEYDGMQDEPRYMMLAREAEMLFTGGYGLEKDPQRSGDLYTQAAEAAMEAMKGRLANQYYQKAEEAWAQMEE

FGFR2(h) (human) = FGFR2(h) (human) (UniProt P21802)
Sequence of FGFR2(h) (human) (P21802 456-770 limits assumed): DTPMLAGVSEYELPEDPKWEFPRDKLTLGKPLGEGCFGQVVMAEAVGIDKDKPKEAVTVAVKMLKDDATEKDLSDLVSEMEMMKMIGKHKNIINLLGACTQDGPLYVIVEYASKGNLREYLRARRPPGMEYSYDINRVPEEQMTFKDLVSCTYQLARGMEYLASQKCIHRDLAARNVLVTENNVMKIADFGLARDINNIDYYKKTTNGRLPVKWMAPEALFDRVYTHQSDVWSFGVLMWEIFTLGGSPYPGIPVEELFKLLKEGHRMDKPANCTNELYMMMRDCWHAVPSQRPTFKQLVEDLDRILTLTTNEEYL

EphB1(h) (human) = EphB1(h) (human) (UniProt P54762)
BTK(h) (human) = BTK(h) (human) (UniProt Q06187)
Sequence of BTK(h) (human) (Q06187 whole entry): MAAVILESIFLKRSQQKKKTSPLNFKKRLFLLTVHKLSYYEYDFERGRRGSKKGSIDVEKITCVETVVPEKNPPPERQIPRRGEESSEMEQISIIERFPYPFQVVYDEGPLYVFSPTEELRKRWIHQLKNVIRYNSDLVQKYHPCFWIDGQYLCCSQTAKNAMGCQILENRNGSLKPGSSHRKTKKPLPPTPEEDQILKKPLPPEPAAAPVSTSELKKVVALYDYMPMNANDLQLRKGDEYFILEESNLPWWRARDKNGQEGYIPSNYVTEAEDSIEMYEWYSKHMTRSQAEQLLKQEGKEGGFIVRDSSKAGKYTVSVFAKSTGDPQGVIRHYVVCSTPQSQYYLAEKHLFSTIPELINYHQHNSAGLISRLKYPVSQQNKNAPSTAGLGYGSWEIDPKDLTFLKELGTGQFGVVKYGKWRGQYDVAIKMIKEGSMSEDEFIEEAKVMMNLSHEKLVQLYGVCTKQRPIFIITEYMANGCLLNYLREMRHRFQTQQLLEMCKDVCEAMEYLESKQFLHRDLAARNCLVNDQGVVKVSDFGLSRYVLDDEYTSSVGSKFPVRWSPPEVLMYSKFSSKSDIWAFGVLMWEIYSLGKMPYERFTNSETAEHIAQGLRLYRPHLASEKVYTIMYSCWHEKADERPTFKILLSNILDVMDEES

DYRK2(h) (human) = DYRK2(h) (human) (UniProt Q92630)
NEK6(h) (human) = NEK6(h) (human) (UniProt Q9HC98)
Sequence of NEK6(h) (human) (Q9HC98 whole entry): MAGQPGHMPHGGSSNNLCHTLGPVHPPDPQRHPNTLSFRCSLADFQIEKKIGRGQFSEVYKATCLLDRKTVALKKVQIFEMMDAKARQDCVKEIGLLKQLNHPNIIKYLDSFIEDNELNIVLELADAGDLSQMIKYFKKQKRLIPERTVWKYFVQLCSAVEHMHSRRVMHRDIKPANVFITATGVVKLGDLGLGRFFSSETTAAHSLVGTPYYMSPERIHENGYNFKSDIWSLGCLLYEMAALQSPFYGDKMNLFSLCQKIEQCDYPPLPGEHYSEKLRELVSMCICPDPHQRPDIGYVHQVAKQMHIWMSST

Fer(h) (human) = Fer(h) (human) (UniProt P16591)
IR(h) (human) = IR(h) (human) (UniProt P06213)
Sequence of IR(h) (human) (P06213 1005-1310 limits assumed): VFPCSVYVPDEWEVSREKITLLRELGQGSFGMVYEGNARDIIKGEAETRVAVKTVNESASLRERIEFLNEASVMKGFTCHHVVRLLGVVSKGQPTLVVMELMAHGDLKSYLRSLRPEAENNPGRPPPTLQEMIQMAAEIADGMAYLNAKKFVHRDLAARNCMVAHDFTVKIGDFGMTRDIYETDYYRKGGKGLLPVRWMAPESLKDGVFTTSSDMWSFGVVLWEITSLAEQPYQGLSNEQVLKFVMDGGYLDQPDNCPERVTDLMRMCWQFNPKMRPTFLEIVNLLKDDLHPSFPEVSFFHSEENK

cKit(V560G)(h) (human) = cKit(V560G)(h) (human) (UniProt P10721)
Sequence of cKit(V560G)(h) (human) (P10721 544-976 V560G): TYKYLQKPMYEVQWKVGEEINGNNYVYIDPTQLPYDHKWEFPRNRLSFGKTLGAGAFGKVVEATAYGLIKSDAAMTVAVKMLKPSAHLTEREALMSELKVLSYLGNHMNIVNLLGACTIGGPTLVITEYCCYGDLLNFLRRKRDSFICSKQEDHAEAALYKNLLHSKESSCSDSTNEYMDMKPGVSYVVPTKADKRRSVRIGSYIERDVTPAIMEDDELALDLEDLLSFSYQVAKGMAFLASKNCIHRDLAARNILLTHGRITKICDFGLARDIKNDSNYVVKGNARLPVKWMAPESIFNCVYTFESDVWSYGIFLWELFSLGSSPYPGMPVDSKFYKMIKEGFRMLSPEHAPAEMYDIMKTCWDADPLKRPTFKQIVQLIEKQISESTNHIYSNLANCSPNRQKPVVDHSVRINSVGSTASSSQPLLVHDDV

CDK2/cyclinE(h) (human) = CDK2/cyclinE(h) (human) (UniProt P24941)
Met(Y1248H)(h) (human) = Met(Y1248H)(h) (human) (UniProt P08581)
NEK2(h) (human) = target: T3, NEK2(h) (human) (UniProt P51955)
T3 sequence (looked up): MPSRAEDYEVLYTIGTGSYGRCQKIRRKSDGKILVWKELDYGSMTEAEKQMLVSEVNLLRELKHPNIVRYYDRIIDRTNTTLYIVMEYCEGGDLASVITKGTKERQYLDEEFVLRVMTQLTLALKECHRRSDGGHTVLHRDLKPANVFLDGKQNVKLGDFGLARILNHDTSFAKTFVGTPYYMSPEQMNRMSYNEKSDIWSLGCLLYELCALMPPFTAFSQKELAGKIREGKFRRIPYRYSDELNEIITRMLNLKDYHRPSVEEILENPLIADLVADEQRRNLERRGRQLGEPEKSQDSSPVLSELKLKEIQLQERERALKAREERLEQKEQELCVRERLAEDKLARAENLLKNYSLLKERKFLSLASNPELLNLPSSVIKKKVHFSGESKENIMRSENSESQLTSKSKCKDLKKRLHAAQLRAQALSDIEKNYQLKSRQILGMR

Sequence of ACK1(h) (human) (Q07912 110-476 limits assumed): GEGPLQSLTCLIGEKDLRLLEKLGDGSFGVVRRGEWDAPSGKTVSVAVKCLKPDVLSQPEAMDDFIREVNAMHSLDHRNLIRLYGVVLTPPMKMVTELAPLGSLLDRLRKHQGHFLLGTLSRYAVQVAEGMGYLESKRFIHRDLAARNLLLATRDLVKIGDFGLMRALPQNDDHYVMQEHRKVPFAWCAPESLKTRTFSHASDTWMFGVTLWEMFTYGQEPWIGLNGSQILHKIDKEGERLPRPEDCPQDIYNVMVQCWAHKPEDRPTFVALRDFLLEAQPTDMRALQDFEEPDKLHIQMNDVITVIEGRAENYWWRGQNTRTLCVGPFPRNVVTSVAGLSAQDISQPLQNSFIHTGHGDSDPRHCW
Sequence of PDGFRα(V561D)(h) (human) (P16234 550-1089 V561D limits assumed): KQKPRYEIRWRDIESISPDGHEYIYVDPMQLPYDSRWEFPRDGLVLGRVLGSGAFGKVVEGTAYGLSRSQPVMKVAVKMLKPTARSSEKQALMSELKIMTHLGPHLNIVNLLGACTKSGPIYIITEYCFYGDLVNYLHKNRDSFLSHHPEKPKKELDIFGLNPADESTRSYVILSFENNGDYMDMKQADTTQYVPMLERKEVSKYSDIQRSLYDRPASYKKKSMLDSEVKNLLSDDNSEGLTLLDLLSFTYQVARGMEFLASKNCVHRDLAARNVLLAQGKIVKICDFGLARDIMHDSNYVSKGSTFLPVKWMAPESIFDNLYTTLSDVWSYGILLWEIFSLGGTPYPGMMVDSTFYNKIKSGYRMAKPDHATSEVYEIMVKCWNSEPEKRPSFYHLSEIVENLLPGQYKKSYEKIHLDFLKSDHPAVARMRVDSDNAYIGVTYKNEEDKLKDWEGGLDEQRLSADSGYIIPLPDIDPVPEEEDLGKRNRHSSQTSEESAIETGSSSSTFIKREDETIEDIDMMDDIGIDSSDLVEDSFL
Sequence of HIPK2(h) (human) (Q9H2X6 165-564 limits assumed): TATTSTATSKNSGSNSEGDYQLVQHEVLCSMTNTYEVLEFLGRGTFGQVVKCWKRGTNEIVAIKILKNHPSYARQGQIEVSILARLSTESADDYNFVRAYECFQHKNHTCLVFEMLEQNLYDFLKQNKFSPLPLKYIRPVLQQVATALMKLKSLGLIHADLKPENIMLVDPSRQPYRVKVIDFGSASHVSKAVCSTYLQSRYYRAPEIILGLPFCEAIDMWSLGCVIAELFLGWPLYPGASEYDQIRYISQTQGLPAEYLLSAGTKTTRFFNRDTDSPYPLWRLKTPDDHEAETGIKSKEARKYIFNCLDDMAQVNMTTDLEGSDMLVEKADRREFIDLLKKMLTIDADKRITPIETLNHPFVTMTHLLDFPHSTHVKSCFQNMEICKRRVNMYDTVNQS

% activity, 100 µM (JAK3(h) (human)): 95%
% activity, 100 µM (ACK1(h) (human)): 64%
% activity, 100 µM (HIPK2(h) (human)): 38%
% activity, 100 µM (PDGFRα(V561D)(h) (human)): 146%
% activity, 100 µM (Fes(h) (human)): 23%
% activity, 100 µM (MLCK(h) (human)): 0%
% activity, 100 µM (EphA8(h) (human)): 337%
% activity, 100 µM (PKG1α(h) (human)): 25%
% activity, 100 µM (EphB3(h) (human)): 79%
% activity, 100 µM (PTK5(h) (human)): 96%
% activity, 100 µM (eEF-2K(h) (human)): 43%
% activity, 100 µM (FGFR2(h) (human)): 12%
% activity, 100 µM (EphB1(h) (human)): 37%
% activity, 100 µM (BTK(h) (human)): 18%
% activity, 100 µM (DYRK2(h) (human)): 127%
% activity, 100 µM (NEK6(h) (human)): 49%
% activity, 100 µM (Fer(h) (human)): 196%
% activity, 100 µM (IR(h) (human)): 95%
% activity, 100 µM (cKit(V560G)(h) (human)): 198%
% activity, 100 µM (CDK2/cyclinE(h) (human)): 19%
% activity, 100 µM (Met(Y1248H)(h) (human)): 126%
% activity, 100 µM (NEK2(h) (human)): 0%
Substance: MMI-0500 (peptide)
